Numbered stars: 1 amine (or outer) side, 2 acyl side, 3 side chain; on linkers, the order of the positions; unused ones are H or OH. Square brackets hold non-standard residues; d marks the D form. Ends that are not written are not given here. * marks the point of attachment. Tyr(Me) = O-methyltyrosine, COc1ccc(C[C@H](N[*:1])C(=O)[*:2])cc1; Propanoyl(3-indol-3-yl) = O=C(CCc1c[nH]c2ccccc12)*; Phe(F5) = N[C@@H](Cc1c(F)c(F)c(F)c(F)c1F)C(=O)O; Propanoyl(3-(3-pyridyl)) = O=C(CCc1cccnc1)*; Arg(Me) = CNC(=N)NCCC[C@H](N)C(=O)O; Fmoc = O=C(OCC1c2ccccc2-c2ccccc21)*; d4Pal = N[C@H](Cc1ccncc1)C(=O)O; Cha = N[C@@H](CC1CCCCC1)C(=O)O; Boc = CC(C)(C)OC(=O)*; azaGly = NNC(=O)O
B1: Compound No. 45: [Ala8]MS10 (peptide)
peptide: YNWNSFGARF-NH2
B2: Compound No. 386: des(1-3)-3-Pyridylpropionyl-[AzaGly7,Arg(Me)9,Trp10]MS10 (peptide)
peptide: {Propanoyl(3-(3-pyridyl))}-NSF[azaGly]L[Arg(Me)]W-NH2
SMILES: CNC(=N)NCCC[C@H](NC(=O)[C@H](CC(C)C)NC(=O)NNC(=O)[C@H](Cc1ccccc1)NC(=O)[C@H](CO)NC(=O)[C@H](CC(N)=O)NC(=O)CCc1cccnc1)C(=O)N[C@@H](Cc1c[nH]c2ccccc12)C(N)=O
B3: Compound No. 56: [Lys2]MS10 (peptide)
peptide: YKWNSFGLRF-NH2
B4: Compound No. 397: Methylthiocarbamoyl-Sar-[D-Tyr1,Arg(Me)9]MS10 (peptide)
peptide: GYNWNSFGLRF
modifications: N-terminal Methylthiocarbamoyl-Sar added before position 1; D-Tyr1; Arg(Me)9 (MS10 numbering); C-terminal amide
B5: Compound No. 79: [Hph10]MS10 (peptide)
peptide: YNWNSFGLRX
modifications: Hph10; C-terminal amide
B6: Compound No. 315: des(1)-[D-Asn2,Cha3,AzaGly7,Arg(Me)9]MS10 (peptide)
peptide: [dN][Cha]NSF[azaGly]L[Arg(Me)]F-NH2
modifications: N-terminus assumed
SMILES: CNC(=N)NCCC[C@H](NC(=O)[C@H](CC(C)C)NC(=O)NNC(=O)[C@H](Cc1ccccc1)NC(=O)[C@H](CO)NC(=O)[C@H](CC(N)=O)NC(=O)[C@H](CC1CCCCC1)NC(=O)[C@H](N)CC(N)=O)C(=O)N[C@@H](Cc1ccccc1)C(N)=O
B7: Compound No. 87: des(4-5)-Boc-MS10 (peptide)
peptide: Boc-YNWFGLRF-NH2
SMILES: CC(C)C[C@H](NC(=O)CNC(=O)[C@H](Cc1ccccc1)NC(=O)[C@H](Cc1c[nH]c2ccccc12)NC(=O)[C@H](CC(N)=O)NC(=O)[C@H](Cc1ccc(O)cc1)NC(=O)OC(C)(C)C)C(=O)N[C@@H](CCCNC(=N)N)C(=O)N[C@@H](Cc1ccccc1)C(N)=O
B8: Compound No. 387: Dap-[D-Tyr1,Arg(Me)9]MS10 (peptide)
peptide: XYNWNSFGLRF
modifications: N-terminal Dap added before position 1; D-Tyr1; Arg(Me)9 (MS10 numbering); C-terminal amide
B9: Compound No. 88: des(4-5)-MS10 (peptide)
peptide: YNWFGLRF-NH2
B10: Compound No. 385: des(1)-[D-Tyr2,D-Pya(4) 3,AzaGly7,Arg(Me)9,Trp10]MS10 (peptide)
peptide: [dY][d4Pal]NSF[azaGly]L[Arg(Me)]W-NH2
modifications: N-terminus assumed
SMILES: CNC(=N)NCCC[C@H](NC(=O)[C@H](CC(C)C)NC(=O)NNC(=O)[C@H](Cc1ccccc1)NC(=O)[C@H](CO)NC(=O)[C@H](CC(N)=O)NC(=O)[C@@H](Cc1ccncc1)NC(=O)[C@H](N)Cc1ccc(O)cc1)C(=O)N[C@@H](Cc1c[nH]c2ccccc12)C(N)=O
B11: Compound No. 74: [Ser1]MS10 (peptide)
peptide: SNWNSFGLRF-NH2
B12: Compound No. 274: des(1-2)-Acetyl-[Ala3,AzaGly7,Arg(Me)9]MS10 (peptide)
peptide: Ac-ANSF[azaGly]L[Arg(Me)]F-NH2
SMILES: CNC(=N)NCCC[C@H](NC(=O)[C@H](CC(C)C)NC(=O)NNC(=O)[C@H](Cc1ccccc1)NC(=O)[C@H](CO)NC(=O)[C@H](CC(N)=O)NC(=O)[C@H](C)NC(C)=O)C(=O)N[C@@H](Cc1ccccc1)C(N)=O
B13: Compound No. 375: 2-Aminoethyl-Gly-[D-Tyr1,Arg(Me)9]MS10 (peptide)
peptide: {2‑aminoethyl}-G[dY]NWNSFGL[Arg(Me)]F-NH2
modifications: not fully specified (residue 1); printed as 2-Aminoethyl-Gly-[D-Tyr1,Arg(Me)9]MS10
B14: Compound No. 76: [Lys1]MS10 (peptide)
peptide: KNWNSFGLRF-NH2
B15: Compound No. 105: [Nle8]MS10 (peptide)
peptide: YNWNSFGXRF
modifications: Nle8; C-terminal amide
B16: Compound No. 114: des(1-3)-3-(3-Indolyl)propionyl-MS10 (peptide)
peptide: {Propanoyl(3-indol-3-yl)}-NSFGLRF-NH2
SMILES: CC(C)C[C@H](NC(=O)CNC(=O)[C@H](Cc1ccccc1)NC(=O)[C@H](CO)NC(=O)[C@H](CC(N)=O)NC(=O)CCc1c[nH]c2ccccc12)C(=O)N[C@@H](CCCNC(=N)N)C(=O)N[C@@H](Cc1ccccc1)C(N)=O
B17: Compound No. 110: [Nal(2)10]MS10 (peptide)
peptide: YNWNSFGLRX
modifications: Nal(2)10; C-terminal amide
B18: Compound No. 112: [Cha10]MS10 (peptide)
peptide: YNWNSFGLRX
modifications: Cha10; C-terminal amide
B19: Compound No. 54: des(1-2)-Fmoc-MS10 (peptide)
peptide: Fmoc-WNSFGLRF-NH2
SMILES: CC(C)C[C@H](NC(=O)CNC(=O)[C@H](Cc1ccccc1)NC(=O)[C@H](CO)NC(=O)[C@H](CC(N)=O)NC(=O)[C@H](Cc1c[nH]c2ccccc12)NC(=O)OCC1c2ccccc2-c2ccccc21)C(=O)N[C@@H](CCCNC(=N)N)C(=O)N[C@@H](Cc1ccccc1)C(N)=O
B20: Compound No. 17: [Pya(4)10]MS10 (peptide)
peptide: YNWNSFGLRX
modifications: Pya(4)10; C-terminal amide
B21: Compound No. 111: [Phe(F5)10]MS10 (peptide)
peptide: YNWNSFGLR[Phe(F5)]-NH2
B22: Compound No. 18: [Tyr(Me)10]MS10 (peptide)
peptide: YNWNSFGLR[Tyr(Me)]-NH2
B23: Compound No. 50: [Ala7]MS10 (peptide)
peptide: YNWNSFALRF-NH2
B24: Compound No. 75: [Asp1]MS10 (peptide)
peptide: DNWNSFGLRF-NH2
B25: Compound No. 101: [Ser7]MS10 (peptide)
peptide: YNWNSFSLRF-NH2
B26: Compound No. 109: [Tyr10]MS10 (peptide)
peptide: YNWNSFGLRY-NH2
B27: Compound No. 24: [Leu5]MS10 (peptide)
peptide: YNWNLFGLRF-NH2
B28: Compound No. 32: Leu-Pro-Asn-MS10 (peptide)
peptide: LPNYNWNSFGLRF-NH2
B29: Compound No. 97: [Har9]MS10 (peptide)
peptide: YNWNSFGLXF
modifications: Har9; C-terminal amide

These binders were tested against human OT7T175 (metastin receptor) (human) (UniProt Q969F8) (assay: cell-based or functional assay).
Sequence of human OT7T175 (metastin receptor) (human) (Q969F8 whole entry L364H): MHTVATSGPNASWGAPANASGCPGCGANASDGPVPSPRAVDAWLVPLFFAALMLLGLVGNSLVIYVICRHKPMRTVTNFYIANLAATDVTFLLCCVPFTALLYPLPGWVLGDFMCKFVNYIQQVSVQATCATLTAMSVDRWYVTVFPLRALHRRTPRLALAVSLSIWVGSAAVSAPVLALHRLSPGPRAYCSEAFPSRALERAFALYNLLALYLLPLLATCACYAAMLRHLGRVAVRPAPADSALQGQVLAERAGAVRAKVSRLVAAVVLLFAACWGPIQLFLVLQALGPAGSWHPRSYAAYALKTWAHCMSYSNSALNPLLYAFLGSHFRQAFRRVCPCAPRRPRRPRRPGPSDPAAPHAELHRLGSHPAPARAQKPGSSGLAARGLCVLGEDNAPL

In order of rising intracellular Ca ion level-increasing activity (FLIPR) (specific activity to metastin (1-54)):
1. B1  1
2. B3  1
3. B5  1
4. B6  1
5. B7  1
6. B8  1
7. B9  1
8. B11  1
9. B12  1
10. B14  1
11. B13  2
12. B4  5
13. B2  7
14. B10  10

Each binder was assayed against T1, human OT7T175 (metastin receptor) (human, UniProt Q969F8 1-398) (assay: cell-based or functional assay).
T1 sequence (Q969F8 whole entry L364H): as above

In order of falling “intracellular Ca ion level-increasing activity (FLIPR)” value:
1. B23  30 specific activity to metastin (1-54)
2. B17  20 specific activity to metastin (1-54)
3. B26  20 specific activity to metastin (1-54)
4. B25  10 specific activity to metastin (1-54)
5. B28  10 specific activity to metastin (1-54)
6. B29  10 specific activity to metastin (1-54)
7. B19  5 specific activity to metastin (1-54)
8. B20  5 specific activity to metastin (1-54)
9. B16  3 specific activity to metastin (1-54)
10. B21  3 specific activity to metastin (1-54)
11. B18  2 specific activity to metastin (1-54)
12. B15  1 specific activity to metastin (1-54)
13. B22  1 specific activity to metastin (1-54)
14. B24  1 specific activity to metastin (1-54)
15. B27  1 specific activity to metastin (1-54)

What follows are binders tested against T1, human OT7T175 (metastin receptor) (assay: FMAT competition with Cy-5-labeled metastin (40-54), hOT7T175-expressed CHO cells).

In order of rising IC50:
1. B20  0.0066 nM
2. B27  0.83 nM
3. B22  7.7 nM
4. B26  23 nM
5. B17  24 nM
6. B28  25 nM
7. B25  100 nM
8. B21  140 nM
9. B23  190 nM
10. B18  370 nM
11. B29  370 nM
12. B19  450 nM
13. B16  550 nM
14. B15  880 nM
15. B24  880 nM

— patent US20060241051A1 (Takeda / Millennium, published 2006)
